Experimental findings from PMC8233815 are described below.

For series [1], the target named is T1, Elk1 ETS domain (Homo sapiens, UniProt P19419 1-93).
T1 sequence: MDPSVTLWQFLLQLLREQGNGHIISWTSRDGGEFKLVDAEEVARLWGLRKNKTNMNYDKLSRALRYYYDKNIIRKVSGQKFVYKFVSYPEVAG
In words: SPR. For orientation: SPR reads the build-up and loss of mass on a sensor chip optically.

In series [2] the target is T1, Elk1 ETS domain. In words: SPR. The source holds these as a separate data set.

Where two headings read alike, the source gives them in different places.

B1: E74 (dsDNA)
DNA 1: CTGAATAACCGGAAGTAACTCATC
DNA 2: GATGAGTTACTTCCGGTTATTCAG
For the molecule B1, the binding result in series [1] is given as “binds”.

B2: SD1 (scrambled nonspecific) (dsDNA)
DNA 1: CGCAAAAGCTGAGATGGCGTGCC
DNA 2: GGCACGCCATCTCAGCTTTTGCG
Regarding B2, the binding result in series [2] is recorded as “no binding”.
